In patent US6828116:

Tested on: T1, Cy5-Ala-Ala-Phe-Phe-Ala-Ala-Lys-Compound III
T1 sequence: AAFFAAK

With pepsin the “Cy5 fluorescence intensity over time (FRET quench release on cleavage), with and without pepsin” value was “Protease-catalysed hydrolysis of the substrate removes this quenching, restoring the Cy5 fluorescence”.
